The target in test [1] is computationally designed GFP(+16)BE (positive charges mainly at both ends of the barrel) [GFP: P42212]. The test is described as follows: SEC. For orientation: SEC sorts molecules by how far they enter the pores of the column.
The target in test [2] is supercharged green fluorescent protein GFP(+28) [GFP: P42212]. Briefly: SEC.
Test [3] deals with supercharged green fluorescent protein GFP(+36) [GFP: P42212]. Briefly: SEC.
Test [4] deals with Archaeoglobus fulgidus ferritin, wildtype (Archaeoglobus fulgidus) (UniProt O29424). Briefly: time-resolved fluorescence anisotropy. (In general: In fluorescence polarisation assays a small probe gives low polarisation when free and higher when bound to something large.)
For test [5] the target is unchanged. Briefly: SEC + other: UV/Vis absorbance.

One may read the Kd as the free concentration of one partner at which half of the binding sites on the other are occupied at equilibrium, for simple one-to-one binding. A lower Kd goes with tighter binding. In the case of “Archaeoglobus fulgidus ferritin, wildtype (from UniProt O29424 1-173) (natural protein)”, the results for the Kd in test [1], in test [2] and in test [3] were 51.5 µM, 36.7 µM and 22.7 µM, respectively. This substance registered a stoichiometry N (GFP per 24 mer) in test [3] of 3.
In test [4], “supercharged green fluorescent protein GFP(+36) (from UniProt P42212 1-238)” registered a stoichiometry N (AfFtn2 per GFP(+36)) of 12 and a stoichiometry N (GFP(+36) per cage) of 1. For the same substance, in test [5], the stoichiometry N (GFP per ferritin cage) was in the range of 2 to 3, the stoichiometry N (GFP(+36) per 24 mer ferritin) was found to be 0.7, the stoichiometry N (GFP(+36) per AfFtn24) amounted to 1.2 and the stoichiometry N (GFP(+36) per ferritin 24 mer) lay in the range of 4 to 5.

The values above are taken from paper PMC12884264.
